Source: patent publication US7482133B2, “Catalytic domains of β(1,4)-galactosyltransferase I having altered donor and acceptor specificities, domains that promote in vitro protein folding, and methods for their use” (The United States of America as represented by the …, priority 2003, dated 2009)

How the values were obtained:
Type in all cases: biochemical
[1] = GalNAc-T specific activity assay; conditions: for UDP-GalNAc → GlcNAc GalNAc-T activity: donor 500 μM, acceptor β-benzyl-GlcNAc 25 mM
Method: (§1) For example, the galactose and N-acetylgalactosyltransferase activity of β(1,4)-galactosyltransferase I can be determined using the following assay conditions. […], 10 mM MnCl2, 10 mM Tris-HCl (pH 8.0), 500 μM UDP-Gal or UDP-GalNAc, and 20 ng of β(1,4)-galactosyltransferase I can be incubated at 37° C. for 10 minutes to promote coupling of a donor sugar to an acceptor sugar. While these conditions are provided as an example, it is understood that many other conditions may be used to chemically link a donor to an acceptor using the altered catalytic domains of the invention.
(§2) Gal-T and GalNAc-T Enzyme Assays: The protein concentrations were measured using the Bio-Rad protein assay kit, based on the method of Bradford and further verified on SDS gel. […] The activities were measured using UDP-Gal or UDP-GalNAc as sugar nucleotide donors, and GlcNAc and Glc as the acceptor sugars. For the specific activity measurements, […], 10 mM MnCl2, 10 mM Tris-HCl, pH 8.0, 500 μM UDP-Gal or UDP-GalNAc, 20 ng of Gal-T1, and 0.5 μCl of [^3H]UDP-Gal or [^3H]UDP-GalNAc was used for each Gal-T or GalNAc-T reaction. The incubation was carried out at 37° C. for 10 min. […] The column was washed successfully with 300, 400, and 500 μl of water, and the column flow-through was diluted with Biosafe scintillation fluid; radioactivity was measured with a Beckman counter. A reaction without the acceptor sugar was used as a control. A similar assay was carried out to measure the GalNAc-T activity with Glc and other acceptors in the presence of 50 μM bovine LA (Sigma).

[2] = GalNAc-T activity in absence and presence of LA, acceptor Glc; conditions: in the presence of LA
Method: Gal-T and GalNAc-T Enzyme Assays: The protein concentrations were measured using the Bio-Rad protein assay kit, based on the method of Bradford and further verified on SDS gel. […] The activities were measured using UDP-Gal or UDP-GalNAc as sugar nucleotide donors, and GlcNAc and Glc as the acceptor sugars. For the specific activity measurements, a 100-μl incubation mixture containing 50 mM β-benzyl-GlcNAc, 10 mM MnCl2, 10 mM Tris-HCl, pH 8.0, 500 μM UDP-Gal or UDP-GalNAc, 20 ng of Gal-T1, and 0.5 μCl of [^3H]UDP-Gal or [^3H]UDP-GalNAc was used for each Gal-T or GalNAc-T reaction. The incubation was carried out at 37° C. for 10 min. […] The column was washed successfully with 300, 400, and 500 μl of water, and the column flow-through was diluted with Biosafe scintillation fluid; radioactivity was measured with a Beckman counter. A reaction without the acceptor sugar was used as a control. […]

[3] = β4Gal-T1 enzyme assay of in vitro folded CD and SRCD proteins; conditions: condition I or VIII
Method: β4Gal-T1 Enzyme Assays: The in vitro assay for β4Gal-T1 enzyme activity was performed as described (Boeggeman et al., Glycobiology, 12:395-407 (2002)). The ^3H-labeled-UDP-Gal was used as sugar donor and GlcNAc as the sugar acceptor. A reaction without GlcNAc was used as a control.
Binding of recombinant proteins to UDP-affinity column: UDP-agarose was used to bind the active proteins at 4° C. Columns containing 1 ml bed volume of UDP-agarose were pre-equilibrated with 10 ml of 25 mM cacodylic buffer, pH 7.6, containing 25 mM MnCl2. The renatured protein solutions (0.5 mg) were adjusted to the pre-equilibration buffer conditions and applied to the columns. After loading the sample, the pass-through was re-cycled. It was then analyzed for the unbound protein by SDS-PAGE. The columns were washed 3× with 1-ml portions of equilibration buffer. The bound protein was eluted with the elution buffer consisting of 25 mM cacodylic buffer, pH 7.6, 25 mM EDTA and 1 M NaCl. Fractions of 0.5 ml were collected from the columns, and aliquots were analysed by SDS-PAGE. For enzymatic analysis the appropriate fractions were pooled and dialysed against 50 mM Tris-HCl pH 8.0 at 4° C. […]

[4] = Gal-T specific activity assay; conditions: donor 500 μM; acceptor β-benzyl-GlcNAc 25 mM (10 mM for C342T); saturating conditions
Method: as §1, §2

[5] = GlcNAc-T specific activity assay; conditions: donor 500 μM; acceptor β-benzyl-GlcNAc 25 mM
[6] = Two-substrate kinetic constants, Gal-T reaction; conditions: UDP-galactose → GlcNAc
Excerpt: Studies for Determining the Kinetic Constants: The true Km of the donor (KA) and of the acceptor (KB), the dissociation constant of the donor, Ki(a), and kcat were obtained using two-substrate analyses and the primary plots of five concentrations of donor (UDP-Gal or UDP-GalNAc) and five concentrations of acceptor, and the corresponding secondary plots of the intercepts and slopes. Initial rate conditions were linear with respect to time. A suitable range of donor and acceptor concentrations were chosen, which allowed an accurate Michaelis-Menten plot to be derived. The data were also analyzed for a general two-substrate system using the following equations (Zhang et al., Glycobiology, 9:815-822 (1999)) with the software EnzFitter, a Biosoft nonlinear curve-fitting program for Windows.
[formula] Here v is the initial velocity and the rate equation for sequential symmetrical initial velocity pattern associated with Equation 1, an ordered or random equilibrium mechanism in which substrate A dissociates well from the E-S complex with a dissociation constant of Ki(a). Equation 2 is for asymmetric initial velocity pattern for a double displacement or “ping-pong” mechanism. The kinetic parameters KA, KB, Ki(a), and Vmax, were obtained from the fitted curves using the above rate equations. The graphical method and EnzFitter program gave very similar kinetic parameters. In the N-acetylgalactosamine transferase (GalNAc-T) assay, the maximum substrate concentrations used for UDP-GalNAc and GlcNAc were 1 and 200 mM, respectively. However, in the galactose transferase (Gal-T) assay, because of the limited solubility of GlcNAc in water, the concentration of GlcNAc was limited to no more than […] (which is 2-fold higher than its Km value), whereas up to 300 μM UDP-Gal were used.

| Molecule | acceptor preference of GalNAc transfer [2] | UDP-galactose → GlcNAc Gal-T activity [4] [pmol/min/ng] | UDP-GalNAc → GlcNAc GalNAc-T activity [1] [pmol/min/ng] | UDP-GlcNAc → GlcNAc GlcNAc-T activity [5] [pmol/min/ng] | further results |
| --- | --- | --- | --- | --- | --- |
| Y289N: bovine Gal-T1 catalytic domain, Tyr-289 exchanged with Asn (protein) SLTACPEESPLLVGPMLIEFNIPVDLKLIEQQNPKVKLGGRYTPMDCISPHKVAIIILFRNRQEHLKYWLYYLHPMVQRQQLDYGIYVINQAGESMFNRAKLLNVGFKEALKDYDYNCFVFSDVDLIPMNDHNTYRCFSQPRHISVAMDKFGFSLPYVQNFGGVSALSKQQFLSINGFPNNYWGWGGEDDDIYNRLAFRGMSVSRPNAVIGKTRMIRHSRDKKNEPNPQRFDRIAHTKETMLSDGLNSLTYMVLEVQRYPLYTKITVDIGTPS | transfer GalNAc preferably to Glc rather than to GlcNAc |  |  |  | galactose transferase versus N-acetylgalactosyltransferase activity ([1]; comparison in words (Table III, FIG. 1)): equally strong galactose transferase and N-acetylgalactosyltransferase activities |
| bovine CDβ4Gal-T1: catalytic domain (residues 130-402) of bovine β4Gal-T1 (protein, UniProt P08037 130-402, looked up, fragment, catalytic domain, catalytic domain (residues 130-402) of bovine β4Gal-T1) SLTACPEESPLLVGPMLIEFNIPVDLKLVEQQNPKVKLGGRYTPMDCISPHKVAIIIPFRNRQEHLKYWLYYLHPILQRQQLDYGIYVINQAGESMFNRAKLLNVGFKEALKDYDYNCFVFSDVDLIPMNDHNTYRCFSQPRHISVAMDKFGFSLPYVQYFGGVSALSKQQFLSINGFPNNYWGWGGEDDDIYNRLAFRGMSVSRPNAVIGKCRMIRHSRDKKNEPNPQRFDRIAHTKETMLSDGLNSLTYMVLEVQRYPLYTKITVDIGTPS |  |  |  |  | specific activity before and after binding on UDP-agarose columns [3]: did not change |
| C342T: catalytic domain of bovine Gal-T1 (residues 130-402) with the C342T mutation (protein, UniProt P08037 130-402, looked up, variant C342T, catalytic domain, catalytic domain of bovine Gal-T1 (residues 130-402) with the C342T mutation) SLTACPEESPLLVGPMLIEFNIPVDLKLVEQQNPKVKLGGRYTPMDCISPHKVAIIIPFRNRQEHLKYWLYYLHPILQRQQLDYGIYVINQAGESMFNRAKLLNVGFKEALKDYDYNCFVFSDVDLIPMNDHNTYRCFSQPRHISVAMDKFGFSLPYVQYFGGVSALSKQQFLSINGFPNNYWGWGGEDDDIYNRLAFRGMSVSRPNAVIGKTRMIRHSRDKKNEPNPQRFDRIAHTKETMLSDGLNSLTYMVLEVQRYPLYTKITVDIGTPS |  | 11.8 | 0.1 | 0 | KA (true Km of the donor), Gal-T [6]: 98 (6) μM; KB (true Km of the acceptor), Gal-T [6]: 11 (1) MM; Kcat., Gal-T ([6]; unit assumed): 14 s⁻¹ |
| Y289I_C342T: bovine Gal-T1 catalytic domain (residues 130-402), Tyr-289 exchanged with Ile, with Cys-342 to Thr mutation (protein) SLTACPEESPLLVGPMLIEFNIPVDLKLIEQQNPKVKLGGRYTPMDCISPHKVAIIILFRNRQEHLKYWLYYLHPMVQRQQLDYGIYVINQAGESMFNRAKLLNVGFKEALKDYDYNCFVFSDVDLIPMNDHNTYRCFSQPRHISVAMDKFGFSLPYVQIFGGVSALSKQQFLSINGFPNNYWGWGGEDDDIYNRLAFRGMSVSRPNAVIGKTRMIRHSRDKKNEPNPQRFDRIAHTKETMLSDGLNSLTYMVLEVQRYPLYTKITVDIGTPS | transfer GalNAc preferably to Glc rather than to GlcNAc | 8.8 | 14.7 | 6.2 | affinity to UDP-GalNAc ([1]; FIG. 1, in words): slightly weaker affinity; specific N-acetylgalactosyltransferase activity relative to Y289L ([1]; at the substrate concentration used): half that of Y289L |
